From US7951572B2, “Construction of gold nanoparticle-based peptide chip, and assaying enzyme activity and inhibitor effect using secondary ion mass spectrometric analysis thereof” (Korea Advanced Institute of Science and Technology, priority 2006, dated 2011)

Assays:
[1] = target: PKA kinase (Homo sapiens, UniProt P17612); test: Quantitative analysis of inhibitory reaction against kinase on gold nanoparticle-peptide chip by secondary ion mass spectrometry; type: biochemical; conditions: ATP 10 μM, kinase 1 U, 30° C. for 2 hours, non-linear regression
Procedure: As one example for analyzing an inhibitory reaction against kinase activity, the effect of 4-cyano-3-methylisoquinoline (CMIQ, Sigma), an inhibitor against PKA kinase, was illustrated.
After silicon rubber having circular holes (3 mm diameter and 1 mm height) was attached to the surface of a slide glass (75×25 mm) consisting of a glass substrate, a gold nanoparticle-peptide chip was constructed in each of the holes according to the method of Examples 1-(3).
CMIQ was dissolved in a minimum amount of distilled water to prepare solutions having varying CMIP concentrations of 0.1 nM, 0.5 nM, 1 nM, 5 nM, 10 nM, 50 nM, 100 nM, 500 nM, 1 μM and 5 μM, and each of the solutions was mixed with kinase, was introduced into the gold nanoparticle-peptide chip formed in the holes and was allowed to react at 30° C. for 2 hours. In this reaction, the concentration of ATP was 10 μM, and the concentration of kinase used was 1 U. Since the amount of the peptide attached to the surface would generally be constant, the ATP and kinase concentrations were determined as concentrations at which the maximum enzyme reaction occurred.
The choice of the peaks before and after phosphorylation is not limited thereto, and peaks changed by phosphorylation as shown in FIG. 2 may all be applied. […]
More specifically, the values of Ap1 and Ap2 in the two reference samples, that is, the gold nanoparticle-peptide chip before treatment with kinase and the gold nanoparticle-peptide chip after phosphorylation, would be different depending on the intensity of ions. Thus, to correct this difference, percent phosphorylation was calculated according to the following equation 1: […]
In order to calculate percent inhibition, substitution from the percent phosphorylation value calculated in the equation 1 is made. […] More specifically, after the phosphorylation level at each concentration of the inhibitor is calculated, percent inhibition can be calculated according to the following equation 2: […]

[2] = system: T1, Ac-IYAAPKKGGGGC (SEQ ID NO: 8)
T1 sequence: IYAAPKKGGGGC

[3] = system: T2, Ac-LRRASLGGGGC (SEQ ID NO: 9)
T2 sequence: LRRASLGGGGC

| n (exponent of equation 3) [1] | IC50 ([1]; equation 3) | Imax (percent inhibition at which the maximum inhibitory effect of the inhibitor occurs) ([1]; equation 3) | Compound | SIMS chemical imaging of the phosphorylated peptide ion on microarray spots (2 nM Abl, 100 uM ATP) [2] | change of the peptide mass peak (SIMS) on a chip carrying both peptides [2] | phosphorylation of the chip-bound peptide, seen as a mass change in secondary ion mass spectrometry [2] | SIMS chemical imaging of the phosphorylated peptide ion on microarray spots [3] | change of the peptide mass peak (SIMS) on a chip carrying both peptides [3] | SIMS chemical imaging of the phosphorylated peptide ion on microarray spots [2] | SIMS chemical imaging of the phosphorylated peptide ion on microarray spots (50 nM PKA, 100 uM ATP) [3] |
| --- | --- | --- | --- | --- | --- | --- | --- | --- | --- | --- |
| 0.9996 | ~87 nM | 100% | Cc1ncc2ccccc2c1C#N [CMIQ, 4-cyano-3-methylisoquinoline] |  |  |  |  |  |  |  |
|  |  |  | Abl kinase (Calbiochem) | kinase-treated spots (line 1 and 2) yielded strong ion mass images (i.e. [PAblH-SH-COOH+HPO3]+ or [PPKAH-SH-COOH+HPO3]+) | only the mass signals of peptides specific for the kinases were changed | the phosphorylation of the peptide occurred | No cross-images of kinases against opposite peptides were observed | the AbI kinase and the PKA kinase did not influence the mass peaks of other peptides |  |  |
|  |  |  | PKA kinase |  | the AbI kinase and the PKA kinase did not influence the mass peaks of other peptides |  |  | only the mass signals of peptides specific for the kinases were changed | No cross-images of kinases against opposite peptides were observed | kinase-treated spots (line 1 and 2) yielded strong ion mass images (i.e. [PAblH-SH-COOH+HPO3]+ or [PPKAH-SH-COOH+HPO3]+) |
